Reference: patent US20260183373

B1: angiotensin-converting enzyme (ACE) (protein)
chain: LDPGLQPGNFSADEAGAQLFAQSYNSSAEQVLFQSVAASWAHDTNITAENARRQEEAALLSQEFAEAWGQKAKELYEPIWQNFTDPQLRRIIGAVRTLGSANLPLAKRQQYNALLSNMSRIYSTAKVCLPNKTATCWSLDPDLTNILASSRSYAMLLFAWEGWHNAAGIPLKPLYEDFTALSNEAYKQDGFTDTGAYWRSWYNSPTFEDDLEHLYQQLEPLYLNLHAFVRRALHRRYGDRYINLRGPIPAHLLGDMWAQSWENIYDMVVPFPDKPNLDVTSTMLQQGWNATHMFRVAEEFFTSLELSPMPPEFWEGSMLEKPADGREVVCHASAWDFYNRKDFRIKQCTRVTMDQLSTVHHEMGHIQYYLQYKDLPVSLRRGANPGFHEAIGDVLALSVSTPEHLHKIGLLDRVTNDTESDINYLLKMALEKIAFLPFGYLVDQWRWGVFSGRTPPSRYNFDWWYLRTKYQGICPPVTRNETHFDAGAKFHVPNVTPYIRYFVSFVLQFQFHEALCKEAGYEGPLHQCDIYRSTKAGAKLRKVLQAGSSRPWQEVLKDMVGLDALDAQPLLKYFQPVTQWLQEQNQQNGEVLGWPEYQWHPPLPDNYPEGIDLVTDEAEASKFVEEYDRTSQVVWNEYAEANWNYNTNITTETSKILLQKNMQIANHTLKYGTQARKFDVNQLQNTTIKRIIKKVQDLERAALPAQELEEYNKILLDMETTYSVATVCHPNGSCLQLEPDLTNVMATSRKYEDLLWAWEGWRDKAGRAILQFYPKYVELINQAARLNGYVDAGDSWRSMYETPSLEQDLERLFQELQPLYLNLHAYVRRALHRHYGAQHINLEGPIPAHLLGNMWAQTWSNIYDLVVPFPSAPSMDTTEAMLKQGWTPRRMFKEADDFFTSLGLLPVPPEFWNKSMLEKPTDGREVVCHASAWDFYNGKDFRIKQCTTVNLEDLVVAHHEMGHIQYFMQYKDLPVALREGANPGFHEAIGDVLALSVSTPKHLHSLNLLSSEGGSDEHDINFLMKMALDKIAFIPFSYLVDQWRWRVFDGSITKENYNQEWWSLRLKYQGLCPPVPRTQGDFDPGAKFHIPSSVPYIRYFVSFIIQFQFHEALCQAAGHTGPLHKCDIYQSKEAGQRLATAMKLGFSRPWPEAMQLITGQPNMSASAMLSYFKPLLDWLRTENELHGEKLGWPQYNWTPNSARSEGPLPDSGRVSFLGLDLDAQQARVGQWL
B2: endothelin-converting enzyme 2 (ECE2) (protein)
chain: GVQYHRDPSHSTCLTEACIRVAGKILESLDRGVSPCEDFYQFSCGGWIRRNPLPDGRSRWNTFNSLWDQNQAILKHLLENTTFNSSSEAEQKTQRFYLSCLQVERIEELGAQPLRDLIEKIGGWNITGPWDQDNFMEVLKAVAGTYRATPFFTVYISADSKSSNSNVIQVDQSGLFLPSRDYYLNRTANEKVLTAYLDYMEELGMLLGGRPTSTREQMQQVLELEIQLANITVPQDQRRDEEKIYHKMSISELQALAPSMDWLEFLSFLLSPLELSDSEPVVVYGMDYLQQVSELINRTEPSILNNYLIWNLVQKTTSSLDRRFESAQEKLLETLYGTKKSCVPRWQTCISNTDDALGFALGSLFVKATFDRQSKEIAEGMISEIRTAFEEALGQLVWMDEKTRQAAKEKADAIYDMIGFPDFILEPKELDDVYDGYEISEDSFFQNMLNLYNFSAKVMADQLRKPPSRDQWSMTPQTVNAYYLPTKNEIVFPAGILQAPFYARNHPKALNFGGIGVVMGHELTHAFDDQGREYDKEGNLRPWWQNESLAAFRNHTACMEEQYNQYQVNGERLNGRQTLGENIADNGGLKAAYNAYKAWLRKHGEEQQLPAVGLTNHQLFFVGFAQVWCSVRTPESSHEGLVTDPHSPARFRVLGTLSNSRDFLRHFGCPVGSPMNPGQLCEVW

| Protein | Aβ cleavage (ELISA-based assay of intact Aβ) (Aβ(1-40), P05067) | Aβ cleavage (ELISA-based assay of intact Aβ) (Aβ(1-42), P05067) |
| --- | --- | --- |
| B1 | ECE2 and ACE were completely inactive on both Aβ isoforms | ECE2 and ACE were completely inactive on both Aβ isoforms |
| B2 | ECE2 and ACE were completely inactive on both Aβ isoforms | ECE2 and ACE were completely inactive on both Aβ isoforms |
